Holding throughout (experiment): SPR, antibody captured, C2 as analyte;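 also: biacore at 37 °C, anti-C2 mAbs held by immobilised goat anti-human IgG, C2 alanine or serine mutants injected, double-referenced sensorgrams fitted to a 1:1 kinetic or steady-state model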
On the technique in general: Surface plasmon resonance follows binding to a sensor surface in real time, without labels.

The target in one assay is T1, human C2 D404A (human, UniProt P06681 21-752).
T1 sequence: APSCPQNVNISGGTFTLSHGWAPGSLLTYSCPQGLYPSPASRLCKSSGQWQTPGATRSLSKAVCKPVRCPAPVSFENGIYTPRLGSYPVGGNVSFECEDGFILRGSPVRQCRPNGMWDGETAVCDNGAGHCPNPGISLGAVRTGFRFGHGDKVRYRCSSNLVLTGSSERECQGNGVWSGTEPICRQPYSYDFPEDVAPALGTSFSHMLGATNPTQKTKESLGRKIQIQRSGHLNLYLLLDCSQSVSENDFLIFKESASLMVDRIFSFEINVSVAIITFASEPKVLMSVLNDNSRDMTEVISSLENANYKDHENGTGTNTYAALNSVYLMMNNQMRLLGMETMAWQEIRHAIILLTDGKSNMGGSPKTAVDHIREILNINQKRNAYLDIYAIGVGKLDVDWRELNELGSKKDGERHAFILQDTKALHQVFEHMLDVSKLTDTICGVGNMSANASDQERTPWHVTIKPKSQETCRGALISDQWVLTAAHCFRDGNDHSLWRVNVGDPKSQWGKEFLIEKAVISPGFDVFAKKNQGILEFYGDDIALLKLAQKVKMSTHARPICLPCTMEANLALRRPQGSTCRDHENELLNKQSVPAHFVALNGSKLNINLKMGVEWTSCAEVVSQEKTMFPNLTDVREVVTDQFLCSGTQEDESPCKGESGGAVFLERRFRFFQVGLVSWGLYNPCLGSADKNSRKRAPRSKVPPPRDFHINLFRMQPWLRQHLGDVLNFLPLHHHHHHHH

For another assay, the target named is T2, human C2 L271A (human, UniProt P06681 21-752).
T2 sequence: T1 sequence with L251A, A384D

The target of another assay is T3, human C2 N327A (human, UniProt P06681 21-752).
T3 sequence: T1 sequence with N307A, A384D

Another assay addresses T4, human C2 A472S (human, UniProt P06681 21-752).
T4 sequence: T1 sequence with A384D, A452S

Residue numbers refer to the chain shown, from its start.

As usually defined, the Kd is a measure of binding affinity in units of concentration. A low value points to a tighter complex.

B1: RF16-242 (antibody, human IgG4 S228P, lambda, V domains shown)
VH: EVQLLQSGAEVKKPGESLKISCKGSGYSFTSYWIGWVRQMPGKGLEWMGIIYPGDSDTRYSPSFQGQVTISADKSISTAYLQWSSLKASDTAMYYCARRGHYGDYFDYWGQGTLVTVSS
VL: SYELTQPPSVSVSPGQTARITCSGDALPKKYAYWYHQKSGQAPVLVIYEDRRRPSEIPERFSGSSSGTMATLTITGAQVEDEGVYFCYSRDRAGNQRVFGGGTQLTVLG
notes: pH-dependent anti-C2 antibody from a phage display library
Take B1: the Kd came out at 16.4 nM in the assay with human C2 D404A, 6.9 nM in the assay with human C2 L271A, 37.5 nM in the assay with human C2 N327A and 51.1 nM in the assay with human C2 A472S.

For the origin of these results see patent publication US20220332804A1 (CSL INNOVATION, published 2022).
